# B1: purified full-length human BACE with six C-terminal His residues, expressed in Sf9 insect cells (protein)
# chain: ETDEEPEEPGRRGSFVEMVDNLRGKSGQGYYVEMTVGSPPQTLNILVDTGSSNFAVGAAPHPFLHRYYQRQLSSTYRDLRKGVYVPYTQGKWEGELGTDLVSIPHGPNVTVRANIAAITESDKFFINGSNWEGILGLAYAEIARPDDSLEPFFDSLVKQTHVPNLFSLQLCGAGFPLNQSEVLASVGGSMIIGGIDHSLYTGSLWYTPIRREWYYEVIIVRVEINGQDLKMDCKEYNYDKSIVDSGTTNLRLPKKVFEAAVKSIKAASSTEKFPDGFWLGEQLVCWQAGTTPWNIFPVISLYLMGEVTNQSFRITILPQQYLRPVEDVATSQDDCYKFAISQSSTGTVMGAVIMEGFYVVFDRARKRIGFAVSACHVHDEFRTAAVEGPFVTLDMEDCGYNIPQTDESTLMTIAYVMAAICALFMLPLCLMVCQWRCLRCLRQQHDDFADDISLLKHHHHHH
# Target: 19 peptidomimetic BACE inhibitors
protein,measurement,value
B1,FRET assay (proteolytic activity of beta-secretase),test compounds inhibiting the binding of a tagged beta-secretase to beta-secretase also inhibit the proteolytic activity of beta-secretase leading to production of A-beta over a broad range of IC-50 values

# Reference: patent publication US20030125257
